Reference: US20260250363A1 (AP BIOSCIENCES, published 2026)
Like-named read-outs stand apart in the source and are kept apart here.

B1: anti-SARS-CoV-2 antibody clone R3-1a-1 (antibody, V domains shown)
VH: QVQLVQSGAEVKKPGSSVKVSCKASGGTFSSYAISWVRQAPGQGLEWMGGIIPILGIANYAQKFQGRVTITADKSTSTAYMELSSLRSEDTAVYYCARDGGGSSGYHDYWGQGTLVTVSS
VL: NFMLTQPHSVSESPGKTVTISCTRSSGSIASKYVQWYQQRPGNSPTTVIYEDDQRPSGVPDRFSASIDSSANTASLTISGLKPEDEADYYCQSYDDNTAVFGGGTHLTVLG
B2: anti-SARS-CoV-2 antibody clone R4-11 (antibody, V domains shown)
VH: QVQLVQSGAEVKKPGSSVKVSCKASGGAFSSYAISWVRQAPGQGLEWMGRIIPILGIANYAQKFQGRVTITADKSTSTAYMELSSLRSEDTAVYYCAGGSGYYYWGQGTTVTVSS
VL: QSVLTQPPSVSEAPGQRVTISCSGSSSNIANNAVNWYQQLPGQAPKLLIFYDDLLPSWVSDRFSGSKSGTSASLAISGLQSEDEADYYCAAWDDSLNGPVFGGGTKLTVLR
B3: anti-SARS-CoV-2 antibody clone R4-1a-10 (antibody, V domains shown)
VH: QVQLQQWGAGLLKPSETLSLTCAVYGGSFSGNYWSWIRQPPGKGLEWIGEINHSGSTNYNPSLKSRVTISVDTSKNQFSLKLSSVTAADTAVYYCARGLLDYWGQGTLVTVSS
VL: QSVLTQPSSVSAAPWQRVTISCSGSDSNIGNNPVNWYQHVPGKAPTLLIYYDNFLASKISDRFSGSKSGTSASLAISGLQSDDEADYYCASWDDSLNGVVFGGGTKLTVLR
B4: Imdevimab (antibody, V domains shown)
VH: QVQLVESGGGVVQPGRSLRLSCAASGFTFSNYAMYWVRQAPGKGLEWVAVISYDGSNKYYADSVKGRFTISRDNSKNTLYLQMNSLRTEDTAVYYCASGSDYGDYLLVYWGQGTLVTVSS
VL: QSALTQPASVSGSPGQSITISCTGTSSDVGGYNYVSWYQQHPGKAPKLMIYDVSKRPSGVSNRFSGSKSGNTASLTISGLQSEDEADYYCNSLTSISTWVFGGGTKLTVLG

Tests used:
[1] = target: SARS-CoV-2 Spike Trimer, His Tag (BA.5/Omicron) (MALS verified) (AcroBiosystems, SPN-C522e) (SARS-CoV-2, UniProt P0DTC2 16-1213); test: BLI (ForteBio), mAb on AHC sensor, spike in solution
[2] = target: Recombinant SARS-CoV-2 BA.2 Spike (GCN4-IZ) His Protein, CF (R&D, 11109-CV) (SARS-CoV-2, UniProt P0DTC2 16-1211); test: as above
[3] = target: SARS-CoV-2 Spike Trimer, His Tag (BA.4/Omicron) (MALS verified) (AcroBiosystems, SPN-C5229) (SARS-CoV-2, UniProt P0DTC2 16-1213); test: as above
[4] = target: T1, SARS-CoV-2 B.1.1.529 Spike Protein (Omicron) (SARS-CoV-2, UniProt P0DTC2 16-1211); test: direct ELISA on coated spike, single dose (axis label 30nm)
[5] = target: T2, SARS-CoV-2 B.1.617.2 Spike Protein (R&D, Cat. #10878-CV) (SARS-CoV-2, UniProt P0DTC2 16-1211); test: direct ELISA on coated spike
[6] = target: T3, SARS-CoV-2 Spike Protein, wild type (R&D, Cat. #10549-CV) (SARS-CoV-2, UniProt P0DTC2 16-1211); test: BLI (ForteBio), mAb on AHC sensor, spike in solution
[7] = target: T2, SARS-CoV-2 B.1.617.2 Spike Protein …; test: as above
[8] = target: T4, SARS-CoV-2 C.37 Spike His Protein (R&D, Cat. #10887-CV) (SARS-CoV-2, UniProt P0DTC2 16-1211); test: as above
[9] = target: T5, SARS-CoV-2 AY.1 Spike Protein (R&D, Cat. #10922-CV) (SARS-CoV-2, UniProt P0DTC2 16-1211); test: as above
[10] = target: T1, SARS-CoV-2 B.1.1.529 Spike Protein …; test: as above
[11] = target: T1, SARS-CoV-2 B.1.1.529 Spike Protein …
[12] = target: T3, SARS-CoV-2 Spike Protein, wild type …; test: direct ELISA on coated spike
[13] = target: T4, SARS-CoV-2 C.37 Spike His Protein (R&D, …); test: direct ELISA on coated spike
[14] = target: T2, SARS-CoV-2 B.1.617.2 Spike Protein …; test: competition ELISA: blocks biotin-ACE2 binding to coated spike
[15] = target: T5, SARS-CoV-2 AY.1 Spike Protein (R&D, …); test: as above
[16] = target: T3, SARS-CoV-2 Spike Protein, wild type …; test: as above
[17] = target: T5, SARS-CoV-2 AY.1 Spike Protein (R&D, …); test: direct ELISA on coated spike
[18] = target: T1, SARS-CoV-2 B.1.1.529 Spike Protein …; remark: listed apart in the source
[19] = target: T4, SARS-CoV-2 C.37 Spike His Protein (R&D, …); test: competition ELISA: blocks biotin-ACE2 binding to coated spike
[20] = target: T1, SARS-CoV-2 B.1.1.529 Spike Protein …; test: direct ELISA on coated spike
[21] = target: T1, SARS-CoV-2 B.1.1.529 Spike Protein …; test: competition ELISA: blocks biotin-ACE2 binding to coated spike
[22] = target: T2, SARS-CoV-2 B.1.617.2 Spike Protein …; test: as above; remark: listed apart in the source
[23] = target: T3, SARS-CoV-2 Spike Protein, wild type …
[24] = target: T4, SARS-CoV-2 C.37 Spike His Protein (R&D, …)
[25] = target: T6, SARS-CoV-2 AY.1 Spike Protein (R&D, Cat. #10922-CV) (SARS-CoV-2, UniProt P0DTC2 16-1211); test: BLI (ForteBio), mAb on AHC sensor, spike in solution; remark: listed apart in the source
[26] = target: T7, SARS-CoV-2 C.37 Spike His Protein (R&D, Cat. #10887-CV) (SARS-CoV-2, UniProt P0DTC2 16-1211); test: as above; remark: listed apart in the source
[27] = target: T8, SARS-CoV-2 Spike Protein, wild type (R&D, Cat. #10549-CV) (SARS-CoV-2, UniProt P0DTC2 16-1211); test: as above; remark: listed apart in the source
[28] = target: T7, SARS-CoV-2 C.37 Spike His Protein (R&D, …); test: competition ELISA: blocks biotin-ACE2 binding to coated spike; remark: listed apart in the source
[29] = target: T8, SARS-CoV-2 Spike Protein, wild type …; test: direct ELISA on coated spike; remark: listed apart in the source
[30] = target: T7, SARS-CoV-2 C.37 Spike His Protein (R&D, …); test: direct ELISA on coated spike; remark: listed apart in the source
[31] = target: T6, SARS-CoV-2 AY.1 Spike Protein (R&D, …); test: competition ELISA: blocks biotin-ACE2 binding to coated spike; remark: listed apart in the source
[32] = target: T8, SARS-CoV-2 Spike Protein, wild type …; test: as above; remark: listed apart in the source
[33] = target: T8, SARS-CoV-2 Spike Protein, wild type …; test: as above; remark: listed apart in the source
[34] = target: T6, SARS-CoV-2 AY.1 Spike Protein (R&D, …); test: direct ELISA on coated spike; remark: listed apart in the source
[35] = target: T6, SARS-CoV-2 AY.1 Spike Protein (R&D, …); test: competition ELISA: blocks biotin-ACE2 binding to coated spike; remark: listed apart in the source
[36] = target: T7, SARS-CoV-2 C.37 Spike His Protein (R&D, …); test: as above; remark: listed apart in the source

Binder	Kd [1]	Kd [2]	Kd [3]	EC50 [5]	Kd [6]	Kd [7]	Kd [8]	Kd [9]	Kd [10]	EC50 [12]	EC50 [13]	IC50 [15]	EC50 [17]	further results
B1	12.5 nM	4.36 nM	10.3 nM											binding result [4]: no binding (tested: 30 nM (printed 30nm))
B2				0.0559 nM	4.05 nM	1.53 nM	1.23 nM	2.29 nM	7.93 nM	0.0622 nM	0.0677 nM	0.787 nM	0.0905 nM	IC50 [11]: 24 nM; IC50 [14]: 1.14 nM; IC50 [16]: 3.99 nM; EC50 [18]: 100 nM; IC50 [19]: 1.8 nM
B3	7.86 nM	3.23 nM	6.86 nM	0.0369 nM	1.87 nM	2.34 nM	1.01 nM	1.79 nM	0.571 nM	0.479 nM	1.99 nM	0.738 nM	0.0407 nM	EC50 [20]: 0.0806 nM; IC50 [21]: 1.86 nM; IC50 [22]: 2.12 nM; IC50 [23]: 77 nM; IC50 [24]: 73.8 nM
B4														Kd [25]: 0.305 nM; Kd [26]: 0.563 nM; Kd [27]: 2.32 nM; IC50 [28]: 3.25 nM; EC50 [29]: 0.0681 nM; EC50 [30]: 0.0734 nM; IC50 [31]: 1.18 nM; IC50 [32]: 4.85 nM; IC50 [33]: 4.82 nM; EC50 [34]: 0.0642 nM; IC50 [35]: 0.697 nM; IC50 [36]: 3.77 nM
